Results reported in the DeepSol protein solubility set.

assay: soluble on expression in E. coli; label from the status in PepcDB or PDB records

Soluble on expression in E. coli, not soluble:
MTWNESHGERIIRRFERDIFPWIGSKPISEIAAPELLATVRRIESRGAVETAHRALGNCGQVFRYAIATARATRDISADLRGALPPVKGEHLEHHHHHH
MERHGSELQGEVVFTTTSTANNNVKRAVEYFEDDNQDDALTSTSSGNSTQKESSPFTDFDDVPPPPVAPETPAPAQNRRESASPERQFLDESHLGGIGSPLSQSTRLDETFIEEYSIELDTSGNSRNNISSAASPGPKSPFDDDFTDTAAPVAPPPAPTKAAEEYRRQPHQNPFDEEEEEESQFGGGTLSGRDPFDEDSGNSNENQLREKKLHKKEQLAHRLSSSSEEIVEASIHEDEPIVMAQIPEEKPKPKAIPAFDNAYDADFDNSPPLHHYSAVHLETGLSPLEEAQRALRANRARHKPSNVSLAEEAKLAARQRYSNASDIRREEEEEVVEEDPAVVVPVLRKDLEVEEAPKSVRPPRYRKSREIEEPVVVDRFVEEEVDEKEDIDAIFEKYRKVRKDIFEKNGVENLKNLNFFRTSVSADPKSHTPILMADEYKEPQKQVPAPVVVAQESPILKRRNSLVPSRISGRQSTRRSVTSVRSMRGKRKTRAIPEFFDLTRHQNIRLRAPATKKKRISLHRVEDTEAVVELLNGQKVEVACRSDVISRDVFSLIVQNMNINEHVFFGLSFLRDGEHYFIEDHQRLEKFAPSGWKSVARVGVKVPYVLHLRFKFYPQILDFIKTDVTMNELYLQCRRDVLEERIQPKRDAAFELAALALQAEFGNRPPPVITDYFDIQHYLPKKYSSFEDQSRLKNILAELHGHYAGTRISEAKHKYIQICQRHPDFGAHVHRVFRTKPTSAHGASPFDPDTGSSLWIGIMPRGISIYEQQGGAREVIAEHVWPQTQTLQFDKKRFVIVAVGAHDEQIESTFYTDHHSKSSYFVRFAASQHRWMMKMRQWKSTLRHENTIQAMPDVIVEGQTIPPAPIRQGLEESPPSTPLLASADQIFAKMSVSQEKPAANRPAELPPPAPSSKFAAQYDTVDEGIVCDSQAENFERVDSTDNGNVTPRGMQFDILLVKDPANGLGLTLVDGNLNGVPGVYVKLVADNGAGMKAIKPKWDILTPCDSTQIFASQNQIFPSVSAEMLASAGRKKSFTSSSGDLLNAPNRTNGQSRTPPAPRKAANRRQRAVSDFGAIGDALPTLDGDNLINIKAISGLHLDESDEEKGEYRLPTTSMYAFDRDDDLQASIKESKKPAPEPKSGELRKYRYARRSNLEIAEEIEEEAVESSDDDGQIDEGKRVIDVELDRNENGSLGVQIASLSGRVCIKQLTSEPAISHPDIRVGDVLLYVNGIAVEGKVHQEVVAMLRGGGDRVVLGVQRPPPAYSDQHHASSTSASAPLISVMLLKKPMATLGLSLAKRTMSDGIFIRNIAQDSAASSEGTLRVGDRLVSLDGEPVDGFTPATILEKLKLVQGPVQITVTREQTA
MGSDKIHHHHHHMIDKLEFFIALARAQHFGRAAEECGISQPTLSAAIRQLEDQLGVILVQRGSRFQGLTPEGQRVLEWARRIVGDARTMREEMRAARNGLAGHIRLAVIPTALAMVQRLTEPFQAHHPAVTFQVVSRNSLQVLSLLENLEIDAGITYLDNEPLGRVTSVPLYAERYHLIAATGTPLADRESVTWREVSDLRLCLLTADMQNRRIINQHFTEAGVVPRPTLESNSMIVLFSHIRTGQWSSIMPRNVAESFGFPEEIRMVPIVEPQAQHLVGLVATHREPYTPLVSALLHEARRLAAAQVFDRFFLSRNNTAVLT
MIPSVSPQQDALTGQPLRVVERDGVHYTLLGTAHISQASVAAVKQEVESGCYDAIAVELDAQRLQALCDPDTLAKLDLIQVIRKGQLALFAANLALAAYQRRLAKQLGIEPGAELKTAVTMARERDLPVHLIDREVGLTFKRASAKLGFLGKMKLGGGLIAGLFAADEVGEEEIEKLKQGDMLEASFGDFANESPELYQTIIAERDRYMATRLREEVNSATPKVLVVVGAGHLTGLAKHLENDTEPPTELRALLEKVQQKKR
MNSQDAQNQVPPQKVDQEVDRLALMARAHQAIGELSDILVPLAAAFSSKGHSLYLVGGSVRDAFLGELGHDLDFTTSARPEETKAILDDYADVVWDTGIAFGTLSAEKHGQQIEITTFRSDLYDGNSRNPEVTFGDTLEGDLIRRDFKVNAMAVEIQADGELTFHDPVGGLEDLLTHTLDTPATPEQSFNDDPLRMLRAARFVSQLNFTLAPRVITAMTEMAQQITRITVERMQVELDKMILGKNPEAGIDLMVESGIAQIIYPEIPAMQMTQDEHMQHKDVYAHSLQVMRQAIDQEEDGPDLVLRWAALLHDCGKPDTRDFNEEGRVSFHQHEVVGAKLVRRRMRKLKYSKQMVGDVGQLVFLHMRFHGFSEGQWTDSAVRRYAADAGELLPRLHKLVRADCTTRNKRKAARLQATYDHLEERIAEIAAKEDLARVRPDLDGNEIMEILNIQAGPEVGKAWAFLKELRLERGPLDREVAIAELKSWWEGENNE
MLYANKTVGNTSYKLSKKSIKEQTMLQKNKDLLIEIATRDVKSVFAYFKTTRDGLSMKEAQKRIQVYGRNELTSKRALLAEVMMKLGGMIPGFSKQRVCDELQRETITVSRVECSSSTGLNSELKMMEIPVQELVPGDMIFLSAGDAVPADVRIIYADDLLVNESVLTGNEANIEKFESCYHLERKRFIPLKRMKDYNPLELENVCFKGSHIVSGNAKAIVVSTGKNTYSGILHTCCSRTS
MSTYYQSAPVLVHAHAYQPPLSPPQSPPHGYLPFYTSNPMMCSTSPLYFSPQMVQPLPPQQHYHMYPSTSAGPGMYYTDFNPHYVQIQISQSVSHDKILAGGPKDNCTVARGRKTHVDHRQLSIEKLHPLLLQFKLTTSELETNAYPMRRDGSTKAVSIADTVYTQNKKMFLDDYDMSRNCSRCNKEFKLSPNGTMIRSTGICRYHNRGVAINGKRDTFRKRYSCCNEEFNVALGCKFSDVHVTDQLFKKELSTFVSTPVPVPNDQRSTRVYALDCEMVYTIAGPALARLTMVDMQRNRVLDVFVKPPTDVLDPNTEFSGLTMEQINSAPDTLKTCHQKLFKYVNADTILIGHSLESDLKAMRVVHKNVIDTAILFRSTRDTKVALKVLSAKLLHKNIQGDNEDAIGHDSMEDALTCVDLIFYGLRNPESIAIREANTNC

Soluble on expression in E. coli, soluble:
RQAVGPGGVPAGAGGSGAVLGPEAAGPEREEPECGSSGGGMSRPPPTGKMPGAPETAPGDGAGASRQRKLEALIRDPRSPINVESLLDGLNSLVLDLDFPALRKNKNIDNFLNRYEKIVKKIRGLQMKAEDYDVVKVIGRGAFGEVQLVRHKASQKVYAMKLLSKFEMIKRSDSAFFWEERDIMAFANSPWVVQLFYAFQDDRYLYMVMEYMPGGDLVNLMSNYDVPEKWAKFYTAEVVLALDAIHSMGLIHRDVKPDNMLLDKHGHLKLADFGTCMKMDETGMVHCDTAVGTPDYISPEVLKSQGGDGFYGRECDWWSVGVFLYEMLVGDTPFYADSLVGTYSKIMDHKNSLCFPEDAEISKHAKNLICAFLTDREVRLGRNGVEEIRQHPFFKNDQWHWDNIRETAAPVVPELSSDIDSSNFDDIEDDKGDVETFPIPKAFVGNQLPFIGFTYYRENLLLSDSPSCRENDSIQSRKNEESQEIQKKLYTLEEHLSNEMQAKEELEQKCKSVNTRLEKTAKELEEEITLRKSVESALRQLEREKALLQHKNAEYQRKADHEADKKRNLENDVNSLKDQLEDLKKRNQNSQISTEKVNQLQRQLDETNALLRTESDTAARLRKTQAESSKQIQQLESNNRDLQDKNCLLETAKLKLEKEFINLQSALESERRDRTHGSEIINDLQGRICGLEEDLKNGKILLAKVELEKRQLQERFTDLEKEKSNMEIDMTYQLKVIQQSLEQEEAEHKATKARLADKNKIYESIEEAKSEAMKEMEKKLLEERTLKQKVENLLLEAEKRCSLLDCDLKQSQQKINELLKQKDVLNEDVRNLTLKIEQETQKRCLTQNDLKMQTQQVNTLKMSEKQLKQENNHLMEMKMNLEKQNAELRKERQDADGQMKELQDQLEAEQYFSTLYKTQVRELKEECEEKTKLGKELQQKKQELQDERDSLAAQLEITLTKADSEQLARSIAEEQYSDLEKEKIMKELEIKEMMARHKQELTEKDATIASLEETNRTLTSDVANLANEKEELNNKLKDVQEQLSRLKDEEISAAAIKAQFEKQLLTERTLKTQAVNKLAEIMNRKEPVKRGNDTDVRRKEKENRKLHMELKSEREKLTQQMIKYQKELNEMQAQIAEESQIRIELQMTLDSKDSDIEQLRSQLQALHIGLDSSSIGSGPGDAEADDGFPESRLEGWLSLPVRNNTKKFGWVKKYVIVSSKKILFYDSEQDKEQSNPYMVLDIDKLFHVRPVTQTDVYRADAKEIPRIFQILYANEGESKKEQEFPVEPVGEKSNYICHKGHEFIPTLYHFPTNCEACMKPLWHMFKPPPALECRRCHIKCHKDHMDKKEEIIAPCKVYYDISTAKNLLLLANSTEEQQKWVSRLVKKIPKKPPAPDPFARSSPRTSMKIQQNQSIRRPSRQLAPNKPS
MAHHHHHHMVTAVASVVFARFLRQRYPTVQRVSQYENLSTSPDAPCFVANRILTMTSSQAGTHADGPHHFCRSLSHRNYDDAHYSGDAVVLDIATELREHHQSLDPDASLAITVEVLEKARVKLPAAFRDGSRPVWRLLLVTRHSTATSPTSASATEALTGPPRVFFPLDVASPTQVATVGVKGGTAATLAEPSSNAYAFLYPEAVDYLHRVFPRLVLLGIDSPSVDLPQAMPPGQHSHGALLRCGIAILENLRYTRLSPLLESPAGNNQRGWISGSMLTVFNATQNYDDARGCSVIFFPEEAL
MSLCEKEINNNNNNNELTEKSKEEIEKDEIEYLEYLKYRKEIIDSHCHIHEDVEHLQESCDLPFKKILLMGTTVEDWDKINQLADKINDDNKIIRCFGIHPWFVYNYLPPTELIGKIKEGDGSNDSIIISIDETWRIKMKELLLKYPNSIVGEIGIDKVTKVRLNGFNKNDQESQMRVFRDQIEIANELDRLVSLHCVQLQGQLLTFFQSLDIDKFPPAIALHTFGGKPATVDQFCKMASGKGDKFYFGLSFINLTFSKVDKLIQAIPDDRLLLESDQNSPTQVDQSLFKLIQKISISKNWTIQKTIEQTTLNTLNFLSKQIKKEGHHHHHH
RHVTGVHSPTKPASYSVKWTIEEKELFEQGLAKFGRRWTKISKLIGSRTVLQVKSYARQYFKNKVKCGLDKETPNQKTGHNLQVKNEDKGTKAWTPSCLRGRADPNLNAVKIEKLSDDEEVDITDEVDELSSQTPQKNSSSDLLLDFPNSKMHETNQGEFIASDSQEALFSKSSRGCLQNEKQDETLSSSEITLWTEKQSNGDKKSIELNDQKFNELIKNCNKHDGRGIIVDARQLPSPEPCEIQKNLNDNEMLFHSCQMVEESHEEEELKPPEQEIEIDRNIIQEEEKQAIPEFFEGRQAKTPERYLKIRNYILDQWEICKPKYLNKTSVRPGLKNCGDVNCIGRIHTYLELIGAINFGCEQAVYNRPQTVDKVRIRDRKDAVEAYQLAQRLQSMRTRRRRVRDPWGNWCDAKDLEGQTFEHLSAEELAKRREEEKGRPVKSLKVPRPTKSSFDPFQLIPCNFFSEEKQEPFQVKVASEALLIMDLHAHVSMAEVIGLLGGRYSEVDKVVEVCAAEPCNSLSTGLQCEMDPVSQTQASETLAVRGFSVIGWYHSHPAFDPNPSLRDIDTQAKYQSYFSRGGAKFIGMIVSPYNRNNPLPYSQITCLVISEEISPDGSYRLPYKFEVQQMLEEPQWGLVFEKTRWIIEKYRLSHSSVPMDKIFRRDSDLTCLQKLLECMRKTLSKVTNCFMAEEFLTEIENLFLSNYKSNQENGVTEENCTKELLM
MKTRESSVGLKFRKFNRFYTNVLGFLNEHIYDSPFSLTETRILFEIYNTPNCTAKALQDKLGLDRGYVSRIVKQFEKEDLIYKQRSKDDARHHYIFVTETGKTIYKKLEEKANEQVELMLKVINQKEQHKLAEAMAEIEAILSQSLSARASEISIRDYFLSEDLQLLIEKQRQFYAEAHGWDDTFLAYLQETFDADIEKIWIAESGGKFAGSVGLVKHDEKTVQLRWFLVDADFRGRGLGTQLLEHLVAYCQDMKFDRIFLWTVSTMAEARPLYKKFGFRISEVKQEAPLWGQQLTEERWDLELS
